Source: patent US20250215420, “MULTIPLEXABLE CRISPR EDITORS UTILIZING INTRACELLULAR EVOLVED APTAMERS FOR ENDOGENOUS EFFECTOR RECRUITMENT” (The Trustees of Boston College, published 2025)

Columns and labels:
[1] = test system: MCP T45L-SoxS R93A T45L (bacteriophage MS2); assay: cell_activity; conditions: E. coli CRISPRa; some function retained
[2] = test system: MS2 coat protein (MCP)-SoxS R93A fusion (bacteriophage MS2); assay: ELONA; conditions: protein coated at 10 ug/mL; aptamer 0.25-2500 nM
[3] = target: T1, MS2 coat protein (MCP)-SoxS R93A fusion, wild-type MCP (bacteriophage MS2); assay: cell_activity; CRISPRa in E. coli with dCas9, J1 promoter-GFP reporter; conditions: tags: fused to SoxS(R93A); MS2 hairpin in sgRNA scaffold
T1 chain: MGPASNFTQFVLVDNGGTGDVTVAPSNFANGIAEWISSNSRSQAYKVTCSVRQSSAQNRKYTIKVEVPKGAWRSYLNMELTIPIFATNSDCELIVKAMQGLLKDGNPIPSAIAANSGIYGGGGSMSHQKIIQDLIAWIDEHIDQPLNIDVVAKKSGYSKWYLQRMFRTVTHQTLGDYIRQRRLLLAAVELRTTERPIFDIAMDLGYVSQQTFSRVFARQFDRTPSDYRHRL
From the text: To test the ability of the CRISPR system to accommodate the insertion of an RNA aptamer motif into the sgRNA and allow for locus-specific effector recruitment in E. coli cells, a construct was first designed to insert a known RNA aptamer against bacteriophage MS2 coat protein (MCP) into the tetraloop region of sgRNA (FIG. 3A, SEQ ID NO. 8). Correspondingly, MCP was fused with the SoxS transcriptional activator. Three plasmids (SP, AP, and RP) were designed to introduce into the cell the sgRNA-aptamer chimera, the MCP-SoxS fusion along with dCas9 (SEQ ID NO. 10), and a synthetic reporter construct, respectively (FIG. 4). Following a design principle established by a previous study, the synthetic reporter was constructed to control the expression of enhanced green fluorescent protein (eGFP) by CRISPR co-localized with RNA polymerase through aptamer-MCP interaction (FIG. 3B). This synthetic reporter construct contained a weak promoter and multiple protospacer sequences to be targeted by sgRNA to control levels of gene activation (FIG. 5A).
The distance of the sgRNA target from the transcription start site was also tested by using this reporter. […] Low GFP levels were also observed when an off-target gRNA was used that had no binding site on the J1 synthetic promoter. […]

In the case of “UUAUCACCUUGGCUGCAGGCGUUUUAGAGCUAGAAAUAGCAAGUUAAAAUAAGGCUAGUCCGUUAUCAACUUGAAAAAGUGCGCACAUGAGGAUCACCCAUGUGCUUUUUU [gRNA J1.3-MS2 aptamer scaffold]”, the binding signal (fold GFP decrease vs wild-type MCP) [1] is reported as 23.

MS2 aptamer showed a Kd [2] of 26.3 nM.

B1: gRNA J1.3-MS2 aptamer scaffold (ssRNA)
RNA: UUAUCACCUUGGCUGCAGGCGUUUUAGAGCUAGAAAUAGCAAGUUAAAAUAAGGCUAGUCCGUUAUCAACUUGAAAAAGUGCGCACAUGAGGAUCACCCAUGUGCUUUUUU
Work on B1 yielded an activity [3] of 56 fold GFP increase.
